Data on one substance can be found in US7977317B2, “Compositions and methods for modulating blood-brain barrier transport” (Raptor Pharmaceutical Inc., priority 2001, dated 2011).

Data set [1] relates to BBCEC monolayers. Put plainly: Transcytosis across BBCEC monolayers (in vitro BBB model). In kind it is cell-based, bovine. The text has this: FIG. 10 assesses the ability of several agents to interfere with p97 transyctosis. FIG. 10a, transcytosis of I125-P97 was compared in the presence of cold p97 (5 micromolar), Lf (5 micromolar), and Tf (5 micromolar). […] FIG. 10c, RAP, a known poly-peptide inhibitor of the LDL-Receptor family was applied to the cells (25 micrograms/ml).
FIG. 11 examines the accumulation and transcytosis of p97. FIG. 11a, of [^125I]-p97, [^125I]-BSA and [^125I]-holo-transferrin one hour after i.v. injection. The radioactivity in brain was compared between the three compounds. (n=3); FIG. 11b, Accumulation of p97 and transferrin into the mouse brain parenchyma. In situ brain perfusion was performed with human [^125I]-p97 or [^125I]-holo-transferrin at a final concentration of 10 nM via a catheter inserted in the right common carotid artery. The volume of distribution (VD) of [^125I]-proteins were obtained in the whole brain homogenate (white bars), in brain capillaries (solid bars) and in brain parenchyma (hatched bars) after isolation of the right hemisphere and capillary depletion. Results were obtained for p97 (n=10) and for holo-transferrin (n=6); FIG. 11c, Transcytosis of p97 across BBCEC monolayers. Transcytosis experiments were performed 37° C. (open circles) and 4° C. (closed circles) with BBCEC monolayers. [^125I]-p97 (1 mg/ml) was added to the upper side of the cell-covered filter. One representative experiment is shown (n=4); FIG. 11d, Preferential transport of p97 across the BBCEC monolayers. Apical-to-basal and basal-to-apical transport of [^125I]-p97 (25 nM) was measured for 2 hrs at 37° C. At the end of the experiment, [^125I]-p97 was assessed in the lower or upper chambers of each well by TCA precipitation (n=4).
FIG. 13 illustrates the transcytosis and accumulation of p97 and transferrin in BBCEC monolayers. FIG. 13a, Transcytosis experiments were performed at 37° C. (solid bars) or 4° C. (white bars). [^125I]-p97 or bovine [^125I]-holo-transferrin (1 mg/ml) was added to the upper side of the cell-covered filter. At the end of the experiment, radiolabelled proteins were measured in the lower chamber of each well by TCA precipitation (n=4). Controls were also performed at 37° C. with denatured [^125I]-p97 or bovine [^125I]-holo-transferrin boiled for 30 min (grey bars) (n=2); FIG. 13b, Biospecific interaction analysis was performed with native or boiled p97 for the indicated times. MAb L235 (5 μg) was immobilized on a sensor chip (SM5) using standard procedures incorporating NHS, EDC and ethanolamine. Native and boiled p97 (5 to 30 min) diluted at 1 mg/ml in Ringer/Hepes was cooled and injected into the BIAcore. The surface plasmon resonance response obtained for native p97 and boiled p97 was plotted (in relative units (RU)) as a function of time; FIG. 13c, The accumulation of both proteins into BBEC cells were also measured. Briefly, after incubation at 37° C. (solid bars) or 4° C. (white bars) with either [^125I]-protein, cells were washed four times with cold PBS. Accumulation of both denatured proteins (grey bars) was also measured at 37° C. Filters were then removed, and the radioactivity associated with the cells was quantified (n=3).
FIG. 14 illustrates the stability of p97 and integrity of the BBCEC monolayers following p97 transcytosis. FIG. 14a, Transcytosis experiments were performed at 37° C. and 4° C. by adding p97 (1 mg/ml) to the upper compartment. At the end of the experiment, 50 μl from each lower chamber was used for SDS-polyacrylamide gel electrophoresis. After electrophoresis, the gels were stained with Coomassie Blue. A standard curve was also made with known amounts of recombinant p97 (0-2 μg); FIG. 14b. The gels were dried and scanned to quantify the amount of intact p97 that crossed the BBCEC monolayers at 37° C. and 4° C. (n=3); FIG. 14c, Effect of p97 on sucrose permeability of BBCE cell monolayers co-cultured with astrocytes. […]

Data set [2] relates to LRP1B. Put plainly: RT-PCR after p97 and RAP treatments in U-87 cells: LRP1B. Format: cell-based, human. Conditions: RT-PCR. How it is done: FIG. 34. Effect of p97 and RAP treatments in U-87 cells. A. Cells (2×10^5) were plated onto six-multiwell microplates and grown at 37° C. under 5% CO2 with optimal culture medium supplemented with serum for 4 days. Treatment was performed in serum free medium for 72 hours. RNA isolation and RT-PCR were performed as described in the Examples. B. LRP/LRP1B was immunodetected in cells lysates as described in the Examples. […] (N=2 for p97 treatment), (n=1 for RAP treatment)
FIG. 35. Effect of p97 and RAP treatments in U-87 cells (RT-PCR). Cells (2×10^5) were plated onto six-multiwell microplates and grown at 37° C. under 5% CO2 with optimal culture medium supplemented with serum for 4 days. Treatment was performed in serum free medium for 72 hours. RNA isolation and RT-PCR were performed as described in the Examples. The amplified PCR products were electrophoresed on a 2% agarose gel and visualized under ultraviolet light. (n=2 for p97), (n=1 for RAP)
RNA extraction. Cells in six-wells plate or in 75 cm^2 plastic tissue culture flasks were grown at 37° C. under 5% CO2 with optimal culture medium to 80-90% confluence. Total cellular RNA was preserved in Trizol (Gibco BRL, Burlington, ON). The solution are frozen at −80° C. until extraction. The solution was defroze and mixed with 5:1 chloroform for 3 minutes at room temperature. The suspension was centrifugated at 12000 g at 4° C. […]

Data set [3] deals with LDL-R (Homo sapiens, UniProt P01130). The conditions noted are these: Tables 1-3; cited from earlier work.
The target of data set [4] is LRP (Homo sapiens, UniProt Q07954). Conditions: Tables 1-3; cited from earlier work.
In data set [5] the target is Megalin (Homo sapiens, UniProt P98164). The conditions noted are these: Tables 1-3; cited from earlier work.
The target of data set [6] is VLDL-R (Homo sapiens, UniProt P98155). The conditions noted are these: Tables 1-3; cited from earlier work.

Chain of LRP (Q07954 20-4544): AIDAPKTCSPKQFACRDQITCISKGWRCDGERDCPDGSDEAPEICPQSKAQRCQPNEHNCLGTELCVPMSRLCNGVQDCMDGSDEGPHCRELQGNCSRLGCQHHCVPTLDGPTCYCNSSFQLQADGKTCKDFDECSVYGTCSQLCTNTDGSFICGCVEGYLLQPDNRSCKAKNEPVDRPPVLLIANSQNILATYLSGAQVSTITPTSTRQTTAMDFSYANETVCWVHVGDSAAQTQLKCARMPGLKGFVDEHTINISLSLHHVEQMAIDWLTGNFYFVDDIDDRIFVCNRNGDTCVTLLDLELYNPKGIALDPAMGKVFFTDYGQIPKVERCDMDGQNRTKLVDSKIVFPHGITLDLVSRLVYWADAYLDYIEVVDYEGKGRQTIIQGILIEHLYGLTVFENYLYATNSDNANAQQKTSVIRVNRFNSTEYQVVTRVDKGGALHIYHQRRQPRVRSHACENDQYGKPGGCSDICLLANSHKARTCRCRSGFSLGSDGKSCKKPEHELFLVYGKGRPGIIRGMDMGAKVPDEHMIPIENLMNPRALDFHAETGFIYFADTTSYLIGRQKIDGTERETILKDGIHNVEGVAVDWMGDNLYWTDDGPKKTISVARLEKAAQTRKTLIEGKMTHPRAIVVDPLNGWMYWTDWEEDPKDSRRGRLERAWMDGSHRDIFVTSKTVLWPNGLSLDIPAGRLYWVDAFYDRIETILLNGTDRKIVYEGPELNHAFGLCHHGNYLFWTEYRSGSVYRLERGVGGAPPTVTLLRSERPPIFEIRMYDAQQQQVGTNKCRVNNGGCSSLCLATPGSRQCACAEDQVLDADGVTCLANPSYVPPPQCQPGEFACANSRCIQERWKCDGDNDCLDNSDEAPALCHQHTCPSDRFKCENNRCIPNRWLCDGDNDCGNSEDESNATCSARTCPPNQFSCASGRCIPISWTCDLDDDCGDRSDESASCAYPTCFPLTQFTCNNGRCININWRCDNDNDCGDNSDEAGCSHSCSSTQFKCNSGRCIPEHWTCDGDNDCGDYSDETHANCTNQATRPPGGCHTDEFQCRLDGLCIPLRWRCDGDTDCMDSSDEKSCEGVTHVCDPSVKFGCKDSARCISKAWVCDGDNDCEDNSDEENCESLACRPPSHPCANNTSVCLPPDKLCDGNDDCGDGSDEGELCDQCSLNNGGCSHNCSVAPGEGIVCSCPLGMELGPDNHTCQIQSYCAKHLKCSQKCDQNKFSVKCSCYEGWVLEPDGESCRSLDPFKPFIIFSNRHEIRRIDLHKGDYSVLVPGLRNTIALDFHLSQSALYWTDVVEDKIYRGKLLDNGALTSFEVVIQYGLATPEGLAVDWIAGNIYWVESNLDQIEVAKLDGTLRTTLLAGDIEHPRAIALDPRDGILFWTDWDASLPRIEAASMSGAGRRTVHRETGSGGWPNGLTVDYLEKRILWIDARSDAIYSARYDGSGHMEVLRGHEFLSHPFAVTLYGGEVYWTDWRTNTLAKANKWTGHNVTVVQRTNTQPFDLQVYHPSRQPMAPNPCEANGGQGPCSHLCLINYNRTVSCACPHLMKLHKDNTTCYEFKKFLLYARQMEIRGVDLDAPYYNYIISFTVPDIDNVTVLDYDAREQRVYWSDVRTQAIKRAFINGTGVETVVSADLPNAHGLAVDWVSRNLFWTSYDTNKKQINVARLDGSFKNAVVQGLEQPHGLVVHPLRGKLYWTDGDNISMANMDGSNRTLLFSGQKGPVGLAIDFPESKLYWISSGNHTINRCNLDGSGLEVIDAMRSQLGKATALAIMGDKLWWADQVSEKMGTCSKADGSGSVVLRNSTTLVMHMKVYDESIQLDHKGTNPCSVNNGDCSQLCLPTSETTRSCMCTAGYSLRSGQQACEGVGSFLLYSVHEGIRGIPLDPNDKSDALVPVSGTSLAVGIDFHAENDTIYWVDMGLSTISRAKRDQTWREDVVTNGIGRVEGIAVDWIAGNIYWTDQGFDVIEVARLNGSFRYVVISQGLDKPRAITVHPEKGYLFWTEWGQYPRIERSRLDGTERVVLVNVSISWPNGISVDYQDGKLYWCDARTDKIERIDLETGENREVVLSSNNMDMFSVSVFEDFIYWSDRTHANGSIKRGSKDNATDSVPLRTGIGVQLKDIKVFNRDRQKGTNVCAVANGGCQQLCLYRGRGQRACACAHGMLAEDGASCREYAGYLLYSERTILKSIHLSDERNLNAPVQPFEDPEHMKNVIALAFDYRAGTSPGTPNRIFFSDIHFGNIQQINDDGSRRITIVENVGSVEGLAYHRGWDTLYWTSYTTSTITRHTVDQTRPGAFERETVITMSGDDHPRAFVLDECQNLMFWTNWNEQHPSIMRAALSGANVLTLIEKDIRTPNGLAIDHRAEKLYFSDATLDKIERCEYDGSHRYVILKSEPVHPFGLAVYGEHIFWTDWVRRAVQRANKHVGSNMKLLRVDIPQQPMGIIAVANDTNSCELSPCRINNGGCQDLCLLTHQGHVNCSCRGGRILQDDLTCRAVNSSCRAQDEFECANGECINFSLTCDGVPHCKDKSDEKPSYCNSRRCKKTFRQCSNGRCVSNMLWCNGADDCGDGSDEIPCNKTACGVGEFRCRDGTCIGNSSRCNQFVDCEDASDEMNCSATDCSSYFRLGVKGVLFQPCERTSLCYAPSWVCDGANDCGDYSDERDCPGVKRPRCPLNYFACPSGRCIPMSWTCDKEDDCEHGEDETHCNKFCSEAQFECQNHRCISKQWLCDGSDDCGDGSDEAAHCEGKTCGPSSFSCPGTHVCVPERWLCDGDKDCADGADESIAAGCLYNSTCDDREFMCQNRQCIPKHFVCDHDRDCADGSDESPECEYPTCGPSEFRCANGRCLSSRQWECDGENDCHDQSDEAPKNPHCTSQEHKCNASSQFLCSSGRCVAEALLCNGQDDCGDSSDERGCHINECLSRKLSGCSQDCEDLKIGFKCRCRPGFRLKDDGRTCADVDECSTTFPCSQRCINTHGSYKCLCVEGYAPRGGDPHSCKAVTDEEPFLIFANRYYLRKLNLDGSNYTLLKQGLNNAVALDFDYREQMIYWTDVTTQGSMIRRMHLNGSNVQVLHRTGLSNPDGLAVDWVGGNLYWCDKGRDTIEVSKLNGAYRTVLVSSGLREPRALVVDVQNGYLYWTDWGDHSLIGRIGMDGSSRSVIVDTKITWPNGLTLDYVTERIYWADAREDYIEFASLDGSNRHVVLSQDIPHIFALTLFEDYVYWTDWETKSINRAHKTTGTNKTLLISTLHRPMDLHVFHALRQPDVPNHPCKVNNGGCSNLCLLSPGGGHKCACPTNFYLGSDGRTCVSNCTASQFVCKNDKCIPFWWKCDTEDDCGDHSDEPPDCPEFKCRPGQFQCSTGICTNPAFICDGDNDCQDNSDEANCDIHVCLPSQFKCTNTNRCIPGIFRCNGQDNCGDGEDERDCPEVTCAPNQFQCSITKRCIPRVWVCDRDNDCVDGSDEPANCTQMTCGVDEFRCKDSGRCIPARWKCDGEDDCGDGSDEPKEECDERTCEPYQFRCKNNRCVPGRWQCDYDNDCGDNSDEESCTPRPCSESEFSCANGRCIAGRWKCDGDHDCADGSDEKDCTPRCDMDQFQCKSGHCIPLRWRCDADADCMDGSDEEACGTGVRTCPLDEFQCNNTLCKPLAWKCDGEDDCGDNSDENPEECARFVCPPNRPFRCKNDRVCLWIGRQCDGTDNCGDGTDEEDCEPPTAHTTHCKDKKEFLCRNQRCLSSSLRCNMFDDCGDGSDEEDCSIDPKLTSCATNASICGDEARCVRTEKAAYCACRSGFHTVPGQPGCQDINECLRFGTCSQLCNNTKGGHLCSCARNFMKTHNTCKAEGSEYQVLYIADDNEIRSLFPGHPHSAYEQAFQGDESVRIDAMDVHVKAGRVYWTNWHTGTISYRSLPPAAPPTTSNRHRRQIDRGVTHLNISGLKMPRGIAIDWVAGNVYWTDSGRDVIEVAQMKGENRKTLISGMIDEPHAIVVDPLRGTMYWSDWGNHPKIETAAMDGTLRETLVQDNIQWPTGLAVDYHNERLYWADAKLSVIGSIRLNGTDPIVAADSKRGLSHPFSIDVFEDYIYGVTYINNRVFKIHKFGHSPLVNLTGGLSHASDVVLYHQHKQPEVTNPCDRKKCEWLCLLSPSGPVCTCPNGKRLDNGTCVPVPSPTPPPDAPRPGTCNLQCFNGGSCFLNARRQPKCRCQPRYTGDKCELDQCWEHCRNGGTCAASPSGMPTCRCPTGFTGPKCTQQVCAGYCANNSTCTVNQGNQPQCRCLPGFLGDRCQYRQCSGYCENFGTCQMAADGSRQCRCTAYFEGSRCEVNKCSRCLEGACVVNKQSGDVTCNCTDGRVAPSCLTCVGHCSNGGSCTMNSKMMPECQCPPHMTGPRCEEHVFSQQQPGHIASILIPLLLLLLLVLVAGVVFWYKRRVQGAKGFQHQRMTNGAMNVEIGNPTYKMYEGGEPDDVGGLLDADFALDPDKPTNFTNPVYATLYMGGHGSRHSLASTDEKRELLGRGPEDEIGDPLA

On to “RAP: receptor-associated protein, a protein chaperone that regulates LRP; polypeptide inhibitor of the LDL-Receptor family”, for which the “Effect on transcytosis of p97” value in data set [1] (RAP 25 micrograms/ml (FIG. 10c)) was “significantly inhibited”. Moreover, in data set [1] (RAP (0.6 μM), BSA (5 μM), 2 h at 37° C. (FIG. 17A)), the “Inhibition of p97 transcytosis by LRP ligands” value is “inhibition”. Also, the “Reduction of the initial rate of [125I]-p97 transport across BBCEC monolayers” value in data set [1] (recombinant RAP 25 μg/ml (FIG. 16b)) was “more than 50%”. The “Effect of RAP on the p97 effect on receptor expression” value in data set [2] was “appears to antagonize the effect of p97”. In data set [3], the “Binding to LDL-R” value is listed as “Yes”. Further, the “Binding to LRP” value in data set [4] is reported as “Yes”. Further, the “Binding to Megalin” value in data set [5] is on record as “Yes”. Besides, in data set [6], the “Binding to VLDL-R” value is given as “Yes”.
